From the Human Domainome abundance scans (Beltran et al. 2025)
± gives the uncertainty stated by the source.

B1: Androgen receptor, residues 557 to 632; numbered along this chain, P10275 (parent)
chain: QKTCLICGDEASGCHYGALTCGSCKVFFKRAAEGKQKYLCASRNDCTIDKFRRKNCPSCRLRKCYEAGMTLGARKL

Variants of: B1
Test: abundance fitness (aPCA) (normalised: wild type 0, dead -1); higher = more abundant; growth selection in yeast, the domain comes from the species named
Details: Homo sapiens

Variant | abundance fitness
K25R | -0.066 ± 0.021
K25C | 0.012 ± 0.027
K25M | 0.013 ± 0.027
K25W | -0.077 ± 0.025
K25F | -0.062 ± 0.029
K25A | 0.026 ± 0.022
K25V | -0.043 ± 0.023
K25L | -0.099 ± 0.021
K25T | 0.005 ± 0.025
K25N | 0.014 ± 0.032
K25S | 0.03 ± 0.022
K25D | -0.025 ± 0.03
K25I | -0.24 ± 0.033
K25H | -0.011 ± 0.035
K25G | 0.013 ± 0.021
K25E | 0.044 ± 0.026
I6R | -0.525 ± 0.11
I6Q | -0.459 ± 0.26
I6A | -0.427 ± 0.12
I6V | -0.243 ± 0.07
I6L | -0.789 ± 0.19
I6T | -0.256 ± 0.11
I6M | -0.811 ± 0.24
I6S | -0.617 ± 0.16

Variant | abundance fitness
I6D | -0.646 ± 0.24
I6K | -1.05 ± 0.28
I6C | -0.327 ± 0.21
G17R | -0.33 ± 0.032
G17Q | -0.357 ± 0.05
G17W | -0.645 ± 0.065
G17L | -0.552 ± 0.048
G17N | -0.061 ± 0.23
G17S | -0.319 ± 0.05
G17T | -0.411 ± 0.054
G17P | -0.691 ± 0.092
G17M | -0.229 ± 0.057
Y16T | -0.445 ± 0.044
Y16N | -0.307 ± 0.12
Y16H | -0.333 ± 0.21
Y16W | -0.122 ± 0.034
Y16K | -0.473 ± 0.08
Y16P | -0.455 ± 0.052
Y16C | -0.566 ± 0.081
Y16V | -0.609 ± 0.044
Y16R | -0.684 ± 0.043
Y16G | -0.432 ± 0.034
Y16Q | -0.487 ± 0.074
Y16D | -0.355 ± 0.097

Variant | abundance fitness
Y16M | -0.11 ± 0.041
Y16L | -0.275 ± 0.032
Y16A | -0.397 ± 0.035
Y16S | -0.408 ± 0.038
C7S | -0.615 ± 0.17
C7G | -0.874 ± 0.15
C7Y | -0.583 ± 0.4
C7V | -1.2 ± 0.34
C7E | -1.03 ± 0.39
C7L | -0.886 ± 0.2
C7T | -0.819 ± 0.47
C7W | -0.79 ± 0.47
C7N | -0.212 ± 0.14
C24W | -0.903 ± 0.059
C24Y | -1.08 ± 0.15
C24A | -0.96 ± 0.055
C24M | -0.964 ± 0.075
C24P | -0.853 ± 0.069
C24G | -0.907 ± 0.04
C24Q | -0.932 ± 0.086
C24S | -1.1 ± 0.072
C24L | -0.898 ± 0.046
C24N | -0.904 ± 0.094
C24H | -0.891 ± 0.095

Variant | abundance fitness
C24F | -1.06 ± 0.099
C24E | -0.909 ± 0.063
C24K | -0.957 ± 0.079
C24T | -0.902 ± 0.06
C24V | -0.907 ± 0.048
C24I | -0.904 ± 0.076
C24D | -0.695 ± 0.064
G22R | -0.166 ± 0.047
G22Q | -0.037 ± 0.058
G22A | -0.025 ± 0.056
G22Y | -0.207 ± 0.059
G22T | -0.06 ± 0.063
G22D | -0.033 ± 0.064
G22V | -0.141 ± 0.042
G22M | -0.163 ± 0.052
G22F | -0.322 ± 0.053
G22E | 0.064 ± 0.062
G22I | -0.262 ± 0.054
G22H | -0.152 ± 0.068
G22S | -0.048 ± 0.047
G22C | -0.064 ± 0.051
G22P | -0.026 ± 0.071
G22W | -0.034 ± 0.052
G22K | -0.114 ± 0.051

Variant | abundance fitness
V26E | 0.014 ± 0.071
V26C | -0.012 ± 0.058
V26H | 0.039 ± 0.071
V26D | 0.043 ± 0.077
V26Q | 0.007 ± 0.05
V26M | 0.053 ± 0.042
V26R | 0.019 ± 0.026
V26P | -0.772 ± 0.13
V26G | -0.001 ± 0.046
V26F | -0.13 ± 0.058
V26N | 0.069 ± 0.05
V26T | -0.002 ± 0.04
V26K | 0.058 ± 0.037
V26I | 0.013 ± 0.051
V26S | 0.038 ± 0.035
V26A | -0.108 ± 0.12
V26W | -0.181 ± 0.037
V26L | 0.008 ± 0.033
S23C | -0.185 ± 0.076
S23N | -0.108 ± 0.082
S23Q | -0.084 ± 0.042
S23W | -0.137 ± 0.041
S23Y | -0.122 ± 0.057
S23T | -0.233 ± 0.041

Variant | abundance fitness
S23K | -0.142 ± 0.039
S23E | -0.013 ± 0.034
S23I | -0.836 ± 0.36
S23F | -0.11 ± 0.084
S23L | -0.283 ± 0.035
S23A | -0.163 ± 0.037
S23G | -0.054 ± 0.029
S23H | -0.036 ± 0.077
S23D | -0.069 ± 0.069
S23M | -0.137 ± 0.035
A18L | -0.155 ± 0.034
A18R | -0.24 ± 0.039
A18G | -0.335 ± 0.033
A18C | -0.084 ± 0.047
A18I | 0.124 ± 0.16
A18V | -0.04 ± 0.033
A18Q | -0.223 ± 0.045
A18D | -0.232 ± 0.073
A18E | -0.617 ± 0.074
A18Y | -0.776 ± 0.13
A18S | -0.142 ± 0.048
A18F | -0.684 ± 0.12
A18H | -0.799 ± 0.15
A18P | -0.26 ± 0.052

Variant | abundance fitness
A18W | -1.07 ± 0.12
L5V | -0.145 ± 0.044
L5T | -0.01 ± 0.05
L5S | -0.013 ± 0.044
L5Q | -0.113 ± 0.07
L5K | -0.053 ± 0.06
L5W | -0.122 ± 0.065
L5N | -0.058 ± 0.048
L5Y | -0.162 ± 0.049
L5P | -0.296 ± 0.071
L5R | -0.105 ± 0.046
L5M | -0.212 ± 0.083
D9H | 0.138 ± 0.35
D9F | -0.562 ± 0.21
D9W | -0.289 ± 0.079
D9N | -0.008 ± 0.1
D9S | -0.061 ± 0.064
D9Q | -0.071 ± 0.14
D9V | -0.201 ± 0.062
D9A | -0.089 ± 0.065
D9G | -0.182 ± 0.049
D9C | -0.053 ± 0.1
D9L | -0.626 ± 0.15
